According to patent US20200316195A1 (OSSIANIX, published 2020):
Substitutions are numbered along the chain they refer to. Each block holds one binder with its values, some of them ahead of it.

Key:
[1] = target: T1, recombinant human transferrin receptor 1 (rhTfR-1) (human, UniProt P02786 89-760); experiment: ELISA on plate-coated hTfR1 (Example 15, as in Example 1D) [panel hTfR1]
T1 construct: extracellular domain; also called human TfR-1; human TfR1
Procedure: (§1) The binding specificity of H01-Fc and F02-Fc for hTfR-1 and hTfR-2 were determined by an ELISA as described in Example 1D. Anti-TfR-2 was used as a positive control for TfR-2 binding. […] Both H01-Fc […] F02 Fc bound hTfR-1 with high specificity (˜100 nM) and neither bound hTfR-2 (FIG. 18).

[2] = target: T2, human transferrin receptor 2 (hTfR-2) (human, UniProt Q9UP52 105-801, limits assumed); experiment: ELISA on plate-coated hTfR2 (Example 15, as in Example 1D) [panel hTfR2]
T2 construct: also called human TfR-2
T2 sequence (looked up): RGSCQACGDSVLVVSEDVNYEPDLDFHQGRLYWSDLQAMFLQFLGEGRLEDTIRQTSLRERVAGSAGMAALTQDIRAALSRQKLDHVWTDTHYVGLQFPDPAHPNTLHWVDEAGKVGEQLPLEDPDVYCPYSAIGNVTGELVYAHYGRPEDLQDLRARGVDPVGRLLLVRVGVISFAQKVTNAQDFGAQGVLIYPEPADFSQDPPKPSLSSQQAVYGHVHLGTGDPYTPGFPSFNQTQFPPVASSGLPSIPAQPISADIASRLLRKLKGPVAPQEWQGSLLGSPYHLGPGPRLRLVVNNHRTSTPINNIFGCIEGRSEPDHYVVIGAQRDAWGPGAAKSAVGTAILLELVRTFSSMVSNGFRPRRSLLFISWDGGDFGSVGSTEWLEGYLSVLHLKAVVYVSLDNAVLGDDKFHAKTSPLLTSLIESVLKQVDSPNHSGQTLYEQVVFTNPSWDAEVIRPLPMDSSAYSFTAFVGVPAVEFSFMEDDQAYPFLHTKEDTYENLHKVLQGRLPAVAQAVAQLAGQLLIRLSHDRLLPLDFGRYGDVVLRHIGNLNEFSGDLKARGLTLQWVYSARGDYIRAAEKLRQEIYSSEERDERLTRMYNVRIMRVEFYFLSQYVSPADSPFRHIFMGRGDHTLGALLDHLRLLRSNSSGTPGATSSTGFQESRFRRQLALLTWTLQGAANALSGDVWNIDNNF
Procedure: as §1

[3] = target: T1, recombinant human transferrin receptor …; experiment: ELISA, purified VNAR monomer on plate-adsorbed rhTfR-1, HRP anti-FLAG [panel HUMAN TfR BINDING]
Procedure: (§2) VNARs were purified from 500 mL bacterial cultures which were grown in auto-induction medium (Novagen) and periplasmic fractions were extracted by osmotic shock by resuspending bacteria in TES buffer (50 mM Tris, 1 mM EDTA, 20% Sucrose) mixed with an equal volume of TES diluted 1:5 in water. After 30 minutes on ice, lysates were clarified by centrifugation and the salt concentrations were adjusted to 500 mM NaCl and 10 mM imidazole in 1×PBS. Periplasmic extracts were then purified with Nickel-Sepharose resin (Qiagen), washed in 1×PBS, 10 mM imidazole, 500 mM NaCl, and then eluted in 1×PBS, 500 mM imidazole, 500 mM NaCl. The purified protein was then buffer-exchanged against PBS and concentrated by centrifugation with Vivaspin 20 filters (Sartorius, MWCO 5000). Endotoxin was removed using VivaPure Q mini column (Sartorius) and the protein was sterile filtered (0.22 μm). After estimating the protein concentration using Bradford reagent (Pierce), the purified protein was stored in frozen aliquots. EC50 binding curves of purified VNAR monomers to immobilized to human or mouse TfR-1 ([…]) were determined by standard protein ELISA an HRP-conjugate anti-FLAG M2 antibody. For pH binding sensitivity testing, purified monomer was bound at pH7 and then washed 3 times for 3 min at either pH5.2 or pH7.2.

[4] = target: T3, recombinant mouse transferrin receptor 1 (rmTfR-1) (mouse, UniProt Q62351 89-763); experiment: ELISA, purified VNAR monomer on plate-adsorbed rmTfR-1, HRP anti-FLAG [panel MOUSE TfR BINDING]
T3 construct: extracellular domain; also called mouse TfR-1
Procedure: as §2

[5] = target: T1, recombinant human transferrin receptor …; experiment: competitive phage ELISA
[6] = target: T3, recombinant mouse transferrin receptor …; experiment: competitive phage ELISA
[7] = target: T3, recombinant mouse transferrin receptor …; experiment: ELISA, monomer bound at pH 7 to rmTfR-1, washed 3 x 3 min at pH 7.2 or pH 5.2, HRP anti-FLAG [panel VNAR C11 on mTfR-1]
Procedure: as §2

[8] = target: T1, recombinant human transferrin receptor …; experiment: ELISA, monomer bound at pH 7 to rhTfR-1, washed 3 x 3 min at pH 7.2 or pH 5.2, HRP anti-FLAG [panel VNAR C11 on hTfR-1]
Procedure: as §2

[9] = target: T3, recombinant mouse transferrin receptor …; experiment: ELISA, monomer bound at pH 7 to rmTfR-1, washed 3 x 3 min at pH 7.2 or pH 5.2, HRP anti-FLAG [panel VNAR H11 on mTfR-1]
Procedure: as §2

[10] = target: T3, recombinant mouse transferrin receptor …; experiment: ELISA; target adsorbed to plate; HRP anti-human-Fc detection
Procedure: (§3) To test whether the bispecific molecules retained binding to both transferrin receptor and BACE1, the purified proteins were titrated against either hTfR, mTfR, or BACE1 adsorbed to the solid phase of an ELISA plate. Binding was measured with an […] anti-human-Fc antibody (Example 8; Table 3).
(§4) To test whether the bispecific molecules retained binding to both transferrin receptor and BACE1, the purified proteins were titrated against hTfR, mTfR, or BACE1 adsorbed to the solid phase of an ELISA plate. Binding was measured with an HRP-labelled anti-human-Fc antibody.

[11] = target: T3, recombinant mouse transferrin receptor …; experiment: EC50 on recombinant target, presumably ELISA as in Example 8B
Procedure: as §3, §4

[12] = target: T3, recombinant mouse transferrin receptor …; experiment: ELISA, monomer bound at pH 7 to rmTfR-1, washed 3 x 3 min at pH 7.2 or pH 5.2, HRP anti-FLAG [panel VNAR G02 on mTfR-1]
Procedure: as §2

[13] = target: T1, recombinant human transferrin receptor …; experiment: ELISA, monomer bound at pH 7 to rhTfR-1, washed 3 x 3 min at pH 7.2 or pH 5.2, HRP anti-FLAG [panel VNAR G02 on hTfR-1]
Procedure: as §2

T1 sequence (P02786 89-760): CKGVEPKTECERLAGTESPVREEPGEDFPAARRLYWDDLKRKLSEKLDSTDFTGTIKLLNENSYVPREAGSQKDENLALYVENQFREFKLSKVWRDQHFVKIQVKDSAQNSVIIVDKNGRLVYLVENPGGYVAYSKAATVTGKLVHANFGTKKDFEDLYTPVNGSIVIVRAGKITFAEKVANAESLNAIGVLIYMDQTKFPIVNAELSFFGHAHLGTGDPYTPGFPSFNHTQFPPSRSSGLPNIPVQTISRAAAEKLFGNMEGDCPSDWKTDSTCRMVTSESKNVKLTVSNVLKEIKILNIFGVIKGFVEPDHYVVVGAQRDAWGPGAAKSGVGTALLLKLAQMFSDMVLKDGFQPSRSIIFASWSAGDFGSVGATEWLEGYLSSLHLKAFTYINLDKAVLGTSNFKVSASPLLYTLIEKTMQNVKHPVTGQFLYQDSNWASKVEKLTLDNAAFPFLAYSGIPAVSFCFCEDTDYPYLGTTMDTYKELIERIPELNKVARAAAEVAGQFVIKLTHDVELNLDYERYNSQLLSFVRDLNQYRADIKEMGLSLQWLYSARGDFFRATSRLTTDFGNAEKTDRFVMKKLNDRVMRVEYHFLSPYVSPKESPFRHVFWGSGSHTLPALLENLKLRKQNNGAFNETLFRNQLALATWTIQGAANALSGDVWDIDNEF
T3 sequence (Q62351 89-763): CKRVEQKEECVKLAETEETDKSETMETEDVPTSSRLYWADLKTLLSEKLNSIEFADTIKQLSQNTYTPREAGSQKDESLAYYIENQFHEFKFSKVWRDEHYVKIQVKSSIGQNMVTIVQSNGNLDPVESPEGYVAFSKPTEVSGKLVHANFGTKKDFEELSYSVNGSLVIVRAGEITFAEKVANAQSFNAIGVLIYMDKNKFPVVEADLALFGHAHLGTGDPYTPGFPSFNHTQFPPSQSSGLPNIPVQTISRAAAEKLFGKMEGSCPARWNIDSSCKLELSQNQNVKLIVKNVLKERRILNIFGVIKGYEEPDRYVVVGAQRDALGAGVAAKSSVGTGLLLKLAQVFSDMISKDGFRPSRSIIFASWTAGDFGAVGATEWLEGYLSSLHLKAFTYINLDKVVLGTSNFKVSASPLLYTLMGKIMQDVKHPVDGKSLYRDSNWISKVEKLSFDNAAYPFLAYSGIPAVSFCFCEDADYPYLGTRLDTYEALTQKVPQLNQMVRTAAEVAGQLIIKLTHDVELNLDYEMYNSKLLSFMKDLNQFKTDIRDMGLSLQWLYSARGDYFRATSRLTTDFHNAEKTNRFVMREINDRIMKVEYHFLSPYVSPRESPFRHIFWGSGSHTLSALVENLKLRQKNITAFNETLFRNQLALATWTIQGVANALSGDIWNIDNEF

B1: H01-Fc (bivalent VNAR-Fc fusion protein) (Fc fusion)
chain: ARVDQTPQTITKETGESLTINCVLRDSNCALSSTYWYRKKSGSTKEESISKGGRYVETVNSGSKSFSLRINDLTVEDSGTYRCNVWHDLVWSVCTTDVYGGGTVVTVNAASGAGGGGS
notes: VNAR fused to the N-terminus of the Fc; bivalent; not shown: human IgG1-Fc region (CH2 and CH3 domains) from a modified pFUSE-hIgG1e3-Fc2 plasmid
EC50 (read off the curve) [1]: ~8 nM
binding result [2]: no binding (tested: 10^-6 M)

B2: VNAR A03 (VNAR)
VNAR: ARVDQTPQTITKETGESLTINCVLRDRDCALSSTHWYRKKSGSTNEESIPKGGRYVETVNSGSKSFSLRINDLTVEDSGTYRCNVYSLTANWWCDVYGGGTVVTVNA
notes: Shark VNAR single domain; not shown: FLAG tag of the pOsD2 vector
binding result [3]: binds
binding result [4]: binds

B3: VNAR C02 (VNAR)
VNAR: ARVDQTPQTITKETGESLTINCVLRDNDCALSSTYWYRKKSGSTNEESISKGGRYVETVNSGSKSFSLRINDLTVEDSGTYRCNVYQPPSTESLYWCDVYGGGTAVTVNA
notes: as for B2
binding result [5]: binds
binding result [6]: binds

B6: F02-hFc (bivalent F02 VNAR-hFc fusion protein) (Fc fusion)
chain: ARVDQTPQTITKETGESLTINCVLRDNDCTLSSTHWYRKKSGSTNEERISKGGRYVETVNSGSKSFSLRINDLTVEDSGTYRCNVYAMTRNWWCDVYGGGTVVTVNAASGAGGGGS
notes: VNAR fused to the N-terminus of the Fc; bivalent, about 75 kDa; also called F02-Fc; F02 Fc; not shown: human IgG1-Fc region (CH2 and CH3 domains) from a modified pFUSE-hIgG1e3-Fc2 plasmid
EC50 (read off the curve) [1]: ~20 nM
binding result [2]: no binding (tested: 10^-6 M)
EC50 [10]: 34.3 nM
EC50 [11]: 34.2 nM

Further lines, results first:

binding result [7]: binds
binding result [8]: binds
B4: VNAR C11 (VNAR)
VNAR: B3 VNAR with N27K, Y35S, Q87A, P88R, S90R, T91P, E92D, S93N, Y95N
notes: as for B2

binding result [3]: binds
binding result [9]: binds
B5: VNAR H11 (VNAR)
VNAR: ARVDQTPQTITKETGESLTINCVLRDNDCALSSTYWYRKKSGSTNEERMTKGGRYVETVNSGSKSFSLRINDLTVEDSGTYRCNVYGLVDCASGMNWIDVYGGGTVVTVNA
notes: as for B2

binding result [5]: binds
binding result [6]: binds
B7: VNAR A07 (VNAR)
VNAR: ARVDQTPQTITKEEGESLTINCVLRDSSSALASTSWYRKKSGSTREETISKGGRYVETVNSGSKSFSLRINDLTVEDSGTYRCNVYELVEDTSAYEIGVDVYGDGTAVTVNA
notes: Shark VNAR single domain; also called clone A07; not shown: FLAG tag of the pOsD2 vector

binding result [12]: binds
binding result [13]: binds
B8: VNAR G02 (VNAR)
VNAR: ARVDQTPQTITKETGESLTINCVLRDRDCALSSTHWYRKKSGSTNEESISKGGRYVETVDSGSKSFSLRINDLTVEDSGTYRCNVYQSPVGRRWWCDVYGGGTVVTVNA
notes: as for B2

binding result [6]: binds
B9: VNAR H01 (VNAR)
VNAR: ARVDQTPQTITKETGESLTINCVLRDSNCALSSTYWYRKKSGSTKEESISKGGRYVETVNSGSKSFSLRINDLTVEDSGTYRCNVWHDLVWSVCTTDVYGGGTVVTVNA
notes: as for B2
